This passage reports CRF2 EC50 (cAMP, HTRF) and EC50 [nM], 0% HSA (cAMP, HTRF) results from patent US12679878B2, “CRF2 receptor agonists and their use in therapy” (SANOFI, priority 2020, dated 2026).

The target in assay [1] is human corticotropin-releasing factor 2α receptor (CRF2α receptor) (human), Q13324. Description: cell-based or functional assay.
The target in assay [2] is human corticotropin-releasing factor 2α (CRF2α receptor) (human), Q13324. Description: cell-based or functional assay.
Chain of human corticotropin-releasing factor 2α (CRF2α receptor) (human), Q13324 (Q13324 20-411): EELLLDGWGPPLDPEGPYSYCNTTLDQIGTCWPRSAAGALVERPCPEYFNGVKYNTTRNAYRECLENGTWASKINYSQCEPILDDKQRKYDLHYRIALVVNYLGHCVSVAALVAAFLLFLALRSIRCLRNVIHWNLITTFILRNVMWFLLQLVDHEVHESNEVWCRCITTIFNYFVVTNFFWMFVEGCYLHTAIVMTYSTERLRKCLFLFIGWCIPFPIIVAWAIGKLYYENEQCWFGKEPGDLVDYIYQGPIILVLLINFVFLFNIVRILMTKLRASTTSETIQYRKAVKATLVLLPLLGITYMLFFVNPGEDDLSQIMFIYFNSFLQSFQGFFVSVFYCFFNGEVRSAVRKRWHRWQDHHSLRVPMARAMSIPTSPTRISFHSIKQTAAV

Starred links: 1 amine or outer side, 2 acyl side, 3 side chain; linkers in the order of their positions; H or OH if unused. Non-standard residues stand in square brackets, D forms with d. Groups on a side chain read outwards from the residue. No end group written: not given here. *: point of attachment. C16 diacid = O=C(O)CCCCCCCCCCCCCCC(=O)*; γGlu = O=C(O)[C@H](CCC(=O)[*:2])N[*:1]; Aib = CC(C)(N)C(=O)O

Chain of human corticotropin-releasing factor 2α receptor (CRF2α receptor) (human), Q13324 (Q13324 20-411): as above

B1: peptide of SEQ ID NO: 189 (peptide)
peptide: IVLSLD[dV]PIKLK([γGlu-C16 diacid])QILLKQERQKK[Aib]RQKAEKNKQILAQV-NH2
modifications: N-terminus assumed
SMILES: CC[C@H](C)[C@H](N)C(=O)N[C@H](C(=O)N[C@@H](CC(C)C)C(=O)N[C@@H](CO)C(=O)N[C@@H](CC(C)C)C(=O)N[C@@H](CC(=O)O)C(=O)N[C@@H](C(=O)N1CCC[C@H]1C(=O)N[C@H](C(=O)N[C@@H](CCCCN)C(=O)N[C@@H](CC(C)C)C(=O)N[C@@H](CCCCNC(=O)CC[C@H](NC(=O)CCCCCCCCCCCCCCC(=O)O)C(=O)O)C(=O)N[C@@H](CCC(N)=O)C(=O)N[C@H](C(=O)N[C@@H](CC(C)C)C(=O)N[C@@H](CC(C)C)C(=O)N[C@@H](CCCCN)C(=O)N[C@@H](CCC(N)=O)C(=O)N[C@@H](CCC(=O)O)C(=O)N[C@@H](CCCNC(=N)N)C(=O)N[C@@H](CCC(N)=O)C(=O)N[C@@H](CCCCN)C(=O)N[C@@H](CCCCN)C(=O)NC(C)(C)C(=O)N[C@@H](CCCNC(=N)N)C(=O)N[C@@H](CCC(N)=O)C(=O)N[C@@H](CCCCN)C(=O)N[C@@H](C)C(=O)N[C@@H](CCC(=O)O)C(=O)N[C@@H](CCCCN)C(=O)N[C@@H](CC(N)=O)C(=O)N[C@@H](CCCCN)C(=O)N[C@@H](CCC(N)=O)C(=O)N[C@H](C(=O)N[C@@H](CC(C)C)C(=O)N[C@@H](C)C(=O)N[C@@H](CCC(N)=O)C(=O)N[C@H](C(N)=O)C(C)C)[C@@H](C)CC)[C@@H](C)CC)[C@@H](C)CC)C(C)C)C(C)C
With B1, the CRF2 EC50 (cAMP, HTRF) in assay [1] worked out at 3.49 nM. Moreover, the EC50 [nM], 0% HSA (cAMP, HTRF) in assay [2] was 3.49 nM.

B2: peptide of SEQ ID NO: 197 (peptide)
peptide: IVLSLD[dV]PIKLK([γGlu-C16 diacid])QILLKQARQK[Aib]QRAQAEKNKRILERV-NH2
modifications: N-terminus assumed
SMILES: CC[C@H](C)[C@H](N)C(=O)N[C@H](C(=O)N[C@@H](CC(C)C)C(=O)N[C@@H](CO)C(=O)N[C@@H](CC(C)C)C(=O)N[C@@H](CC(=O)O)C(=O)N[C@@H](C(=O)N1CCC[C@H]1C(=O)N[C@H](C(=O)N[C@@H](CCCCN)C(=O)N[C@@H](CC(C)C)C(=O)N[C@@H](CCCCNC(=O)CC[C@H](NC(=O)CCCCCCCCCCCCCCC(=O)O)C(=O)O)C(=O)N[C@@H](CCC(N)=O)C(=O)N[C@H](C(=O)N[C@@H](CC(C)C)C(=O)N[C@@H](CC(C)C)C(=O)N[C@@H](CCCCN)C(=O)N[C@@H](CCC(N)=O)C(=O)N[C@@H](C)C(=O)N[C@@H](CCCNC(=N)N)C(=O)N[C@@H](CCC(N)=O)C(=O)N[C@@H](CCCCN)C(=O)NC(C)(C)C(=O)N[C@@H](CCC(N)=O)C(=O)N[C@@H](CCCNC(=N)N)C(=O)N[C@@H](C)C(=O)N[C@@H](CCC(N)=O)C(=O)N[C@@H](C)C(=O)N[C@@H](CCC(=O)O)C(=O)N[C@@H](CCCCN)C(=O)N[C@@H](CC(N)=O)C(=O)N[C@@H](CCCCN)C(=O)N[C@@H](CCCNC(=N)N)C(=O)N[C@H](C(=O)N[C@@H](CC(C)C)C(=O)N[C@@H](CCC(=O)O)C(=O)N[C@@H](CCCNC(=N)N)C(=O)N[C@H](C(N)=O)C(C)C)[C@@H](C)CC)[C@@H](C)CC)[C@@H](C)CC)C(C)C)C(C)C
As to B2, the CRF2 EC50 (cAMP, HTRF) in assay [1] was 2.27 nM. Besides, the EC50 [nM], 0% HSA (cAMP, HTRF) in assay [2] worked out at 2.27 nM.

B3: peptide of SEQ ID NO: 190 (peptide)
peptide: IVLSLD[dV]PIKLK([γGlu-C16 diacid])QILLKQERQKKQREQAEKNKQILEQV-NH2
modifications: N-terminus assumed
SMILES: CC[C@H](C)[C@H](N)C(=O)N[C@H](C(=O)N[C@@H](CC(C)C)C(=O)N[C@@H](CO)C(=O)N[C@@H](CC(C)C)C(=O)N[C@@H](CC(=O)O)C(=O)N[C@@H](C(=O)N1CCC[C@H]1C(=O)N[C@H](C(=O)N[C@@H](CCCCN)C(=O)N[C@@H](CC(C)C)C(=O)N[C@@H](CCCCNC(=O)CC[C@H](NC(=O)CCCCCCCCCCCCCCC(=O)O)C(=O)O)C(=O)N[C@@H](CCC(N)=O)C(=O)N[C@H](C(=O)N[C@@H](CC(C)C)C(=O)N[C@@H](CC(C)C)C(=O)N[C@@H](CCCCN)C(=O)N[C@@H](CCC(N)=O)C(=O)N[C@@H](CCC(=O)O)C(=O)N[C@@H](CCCNC(=N)N)C(=O)N[C@@H](CCC(N)=O)C(=O)N[C@@H](CCCCN)C(=O)N[C@@H](CCCCN)C(=O)N[C@@H](CCC(N)=O)C(=O)N[C@@H](CCCNC(=N)N)C(=O)N[C@@H](CCC(=O)O)C(=O)N[C@@H](CCC(N)=O)C(=O)N[C@@H](C)C(=O)N[C@@H](CCC(=O)O)C(=O)N[C@@H](CCCCN)C(=O)N[C@@H](CC(N)=O)C(=O)N[C@@H](CCCCN)C(=O)N[C@@H](CCC(N)=O)C(=O)N[C@H](C(=O)N[C@@H](CC(C)C)C(=O)N[C@@H](CCC(=O)O)C(=O)N[C@@H](CCC(N)=O)C(=O)N[C@H](C(N)=O)C(C)C)[C@@H](C)CC)[C@@H](C)CC)[C@@H](C)CC)C(C)C)C(C)C
In assay [1], B3 returned a CRF2 EC50 (cAMP, HTRF) of 2.47 nM. For the same molecule, in assay [2], the EC50 [nM], 0% HSA (cAMP, HTRF) was found to be 2.47 nM.

B4: peptide of SEQ ID NO: 196 (peptide)
peptide: IVLSLD[dV]PIGLK([γGlu-C16 diacid])QILLKQERQKK[Aib]REQAEKNKRILERV-NH2
modifications: N-terminus assumed
SMILES: CC[C@H](C)[C@H](N)C(=O)N[C@H](C(=O)N[C@@H](CC(C)C)C(=O)N[C@@H](CO)C(=O)N[C@@H](CC(C)C)C(=O)N[C@@H](CC(=O)O)C(=O)N[C@@H](C(=O)N1CCC[C@H]1C(=O)N[C@H](C(=O)NCC(=O)N[C@@H](CC(C)C)C(=O)N[C@@H](CCCCNC(=O)CC[C@H](NC(=O)CCCCCCCCCCCCCCC(=O)O)C(=O)O)C(=O)N[C@@H](CCC(N)=O)C(=O)N[C@H](C(=O)N[C@@H](CC(C)C)C(=O)N[C@@H](CC(C)C)C(=O)N[C@@H](CCCCN)C(=O)N[C@@H](CCC(N)=O)C(=O)N[C@@H](CCC(=O)O)C(=O)N[C@@H](CCCNC(=N)N)C(=O)N[C@@H](CCC(N)=O)C(=O)N[C@@H](CCCCN)C(=O)N[C@@H](CCCCN)C(=O)NC(C)(C)C(=O)N[C@@H](CCCNC(=N)N)C(=O)N[C@@H](CCC(=O)O)C(=O)N[C@@H](CCC(N)=O)C(=O)N[C@@H](C)C(=O)N[C@@H](CCC(=O)O)C(=O)N[C@@H](CCCCN)C(=O)N[C@@H](CC(N)=O)C(=O)N[C@@H](CCCCN)C(=O)N[C@@H](CCCNC(=N)N)C(=O)N[C@H](C(=O)N[C@@H](CC(C)C)C(=O)N[C@@H](CCC(=O)O)C(=O)N[C@@H](CCCNC(=N)N)C(=O)N[C@H](C(N)=O)C(C)C)[C@@H](C)CC)[C@@H](C)CC)[C@@H](C)CC)C(C)C)C(C)C
In assay [1], B4 registered a CRF2 EC50 (cAMP, HTRF) of 1.08 nM. Further, the EC50 [nM], 0% HSA (cAMP, HTRF) in assay [2] was found to be 1.08 nM.

B5: peptide of SEQ ID NO: 193 (peptide)
peptide: IVLSLD[dV]PIGLK([γGlu-C16 diacid])QILLKQERQKK[Aib]REQAETNKRILERV-NH2
modifications: N-terminus assumed
SMILES: CC[C@H](C)[C@H](N)C(=O)N[C@H](C(=O)N[C@@H](CC(C)C)C(=O)N[C@@H](CO)C(=O)N[C@@H](CC(C)C)C(=O)N[C@@H](CC(=O)O)C(=O)N[C@@H](C(=O)N1CCC[C@H]1C(=O)N[C@H](C(=O)NCC(=O)N[C@@H](CC(C)C)C(=O)N[C@@H](CCCCNC(=O)CC[C@H](NC(=O)CCCCCCCCCCCCCCC(=O)O)C(=O)O)C(=O)N[C@@H](CCC(N)=O)C(=O)N[C@H](C(=O)N[C@@H](CC(C)C)C(=O)N[C@@H](CC(C)C)C(=O)N[C@@H](CCCCN)C(=O)N[C@@H](CCC(N)=O)C(=O)N[C@@H](CCC(=O)O)C(=O)N[C@@H](CCCNC(=N)N)C(=O)N[C@@H](CCC(N)=O)C(=O)N[C@@H](CCCCN)C(=O)N[C@@H](CCCCN)C(=O)NC(C)(C)C(=O)N[C@@H](CCCNC(=N)N)C(=O)N[C@@H](CCC(=O)O)C(=O)N[C@@H](CCC(N)=O)C(=O)N[C@@H](C)C(=O)N[C@@H](CCC(=O)O)C(=O)N[C@H](C(=O)N[C@@H](CC(N)=O)C(=O)N[C@@H](CCCCN)C(=O)N[C@@H](CCCNC(=N)N)C(=O)N[C@H](C(=O)N[C@@H](CC(C)C)C(=O)N[C@@H](CCC(=O)O)C(=O)N[C@@H](CCCNC(=N)N)C(=O)N[C@H](C(N)=O)C(C)C)[C@@H](C)CC)[C@@H](C)O)[C@@H](C)CC)[C@@H](C)CC)C(C)C)C(C)C
Regarding B5, in assay [1], the CRF2 EC50 (cAMP, HTRF) stood at 0.82 nM. Besides, in assay [2], the EC50 [nM], 0% HSA (cAMP, HTRF) turned out to be 0.82 nM.

B6: peptide of SEQ ID NO: 195 (peptide)
peptide: IVLSLD[dV]PIGLK([γGlu-C16 diacid])QILLKQERQKK[Aib]RQQAETNKRILERV-NH2
modifications: N-terminus assumed
SMILES: CC[C@H](C)[C@H](N)C(=O)N[C@H](C(=O)N[C@@H](CC(C)C)C(=O)N[C@@H](CO)C(=O)N[C@@H](CC(C)C)C(=O)N[C@@H](CC(=O)O)C(=O)N[C@@H](C(=O)N1CCC[C@H]1C(=O)N[C@H](C(=O)NCC(=O)N[C@@H](CC(C)C)C(=O)N[C@@H](CCCCNC(=O)CC[C@H](NC(=O)CCCCCCCCCCCCCCC(=O)O)C(=O)O)C(=O)N[C@@H](CCC(N)=O)C(=O)N[C@H](C(=O)N[C@@H](CC(C)C)C(=O)N[C@@H](CC(C)C)C(=O)N[C@@H](CCCCN)C(=O)N[C@@H](CCC(N)=O)C(=O)N[C@@H](CCC(=O)O)C(=O)N[C@@H](CCCNC(=N)N)C(=O)N[C@@H](CCC(N)=O)C(=O)N[C@@H](CCCCN)C(=O)N[C@@H](CCCCN)C(=O)NC(C)(C)C(=O)N[C@@H](CCCNC(=N)N)C(=O)N[C@@H](CCC(N)=O)C(=O)N[C@@H](CCC(N)=O)C(=O)N[C@@H](C)C(=O)N[C@@H](CCC(=O)O)C(=O)N[C@H](C(=O)N[C@@H](CC(N)=O)C(=O)N[C@@H](CCCCN)C(=O)N[C@@H](CCCNC(=N)N)C(=O)N[C@H](C(=O)N[C@@H](CC(C)C)C(=O)N[C@@H](CCC(=O)O)C(=O)N[C@@H](CCCNC(=N)N)C(=O)N[C@H](C(N)=O)C(C)C)[C@@H](C)CC)[C@@H](C)O)[C@@H](C)CC)[C@@H](C)CC)C(C)C)C(C)C
For B6, the CRF2 EC50 (cAMP, HTRF) in assay [1] came out at 0.34 nM. The molecule also gave an EC50 [nM], 0% HSA (cAMP, HTRF) in assay [2] of 0.34 nM.
